According to paper PMC12616241:

Assays:
[1] = molecular target: FcγRIIIa on NK cells (human (endogenous in NK cells)) (UniProt P08637)
[2] = molecular target: FcγRIIIa on NK cells (human (endogenous in NK cells)) (UniProt P08637); assay: flow cytometry on cells; purified human NK cells incubated on ice with titrated monomeric antibody (0.03–10 µg/mL), detected with anti-F(ab′)2-Alexa Fluor 647

FcγRIIIa on NK cells (human (endogenous in NK cells)), sequence (P08637 17-208): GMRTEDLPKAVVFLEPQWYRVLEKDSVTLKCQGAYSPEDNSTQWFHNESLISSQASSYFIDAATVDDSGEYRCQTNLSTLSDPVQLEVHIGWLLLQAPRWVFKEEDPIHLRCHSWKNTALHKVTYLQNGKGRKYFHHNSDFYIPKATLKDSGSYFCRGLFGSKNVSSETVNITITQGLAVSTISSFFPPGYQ

- fold decrease in EC50 of NK cell-mediated ADCC (LDH release, 4 h, 10:1) against CAL51, compared with IgG1-GM and IgG1-DE [1]: 100 fold
- fold decrease in EC50 of NK cell-mediated ADCC (LDH release, 4 h, 10:1) against CAL51, compared with IgG1-WT [1]: 4000 fold
- fold greater KD than IgG1-WT (so in the source); stronger binding is meant [2]: 100 fold
Substance: anti-FRα IgG1-DE/GM (MOv18 variable regions, human IgG1 with S239D and I332E, glycomodified) (antibody)
